{
  "source": "paper PMC4299599",
  "about": "“Quantification of cytosolic interactions identifies Ede1 oligomers as key organizers of endocytosis” (Molecular Systems Biology, 2014)",
  "molecules": {"B1": {"name": "Sla2 (natural protein, S. cerevisiae, UniProt P33338 1-968, looked up)", "chain": "MSRIDSDLQKALKKACSVEETAPKRKHVRACIVYTWDHQSSKAVFTTLKTLPLANDEVQLFKMLIVLHKIIQEGHPSALAEAIRDRDWIRSLGRVHSGGSSYSKLIREYVRYLVLKLDFHAHHRGFNNGTFEYEEYVSLVSVSDPDEGYETILDLMSLQDSLDEFSQIIFASIQSERRNTECKISALIPLIAESYGIYKFITSMLRAMHRQLNDAEGDAALQPLKERYELQHARLFEFYADCSSVKYLTTLVTIPKLPVDAPDVFLINDVDESKEIKFKKREPSVTPARTPARTPTPTPPVVAEPAISPRPVSQRTTSTPTGYLQTMPTGATTGMMIPTATGAANAIFPQATAQMQPDFWANQQAQFANEQNRLEQERVQQLQQQQAQQELFQQQLQKAQQDMMNMQLQQQNQHQNDLIALTNQYEKDQALLQQYDQRVQQLESEITTMDSTASKQLANKDEQLTALQDQLDVWERKYESLAKLYSQLRQEHLNLLPRFKKLQLKVNSAQESIQKKEQLEHKLKQKDLQMAELVKDRDRARLELERSINNAEADSAAATAAAETMTQDKMNPILDAILESGINTIQESVYNLDSPLSWSGPLTPPTFLLSLLESTSENATEFATSFNNLIVDGLAHGDQTEVIHCVSDFSTSMATLVTNSKAYAVTTLPQEQSDQILTLVKRCAREAQYFFEDLMSENLNQVGDEEKTDIVINANVDMQEKLQELSLAIEPLLNIQSVKSNKETNPHSELVATADKIVKSSEHLRVDVPKPLLSLALMIIDAVVALVKAAIQCQNEIATTTSIPLNQFYLKNSRWTEGLISAAKAVAGATNVLITTASKLITSEDNENTSPEQFIVASKEVAASTIQLVAASRVKTSIHSKAQDKLEHCSKDVTDACRSLGNHVMGMIEDDHSTSQQQQPLDFTSEHTLKTAEMEQQVEILKLEQSLSNARKRLGEIRRHAYYNQDDD", "notes": "Sla2, S. cerevisiae; Each copy carries one of the two tags; also called Sla2-3myeGFP; source: S. cerevisiae, chromosomally tagged at the endogenous locus, in living cells; not shown: 3myeGFP, C-terminal, kept; 3mCherry, C-terminal, kept"}, "B2": {"name": "Syp1 (natural protein, S. cerevisiae, UniProt P25623 1-870, looked up)", "chain": "MTEQRTKYADSILTTKSPYEATETIRIRLSQVKLLNKDFYLLFKELANLKRNYAQQLRKIIAENEDITKILNAQMIESNVLTPQEMSAFRFNSLGELRNVWDTVIEELKSDLKSSTEYYNTLDQQVVRELKESVENNTSWRESKDLHSKLSKNAASIEHYSKNNENSSHLEEARRQWDQQSPYLFELFETIDYNRLDTLKNCMLRFQTSFSDYLLNTTKECETVMTKFLAFEPQSEIDRFAKDASQYNFQLSSSSKEVVPNNASPASATGARPVSVSNGAANTEREKKSPQKDKRKSAFGNIGHRLASASSSLTHNDLMNNEFSDSTNNSSLKSKKSSHTLRSKVGSIFGRNKTKNKRQQQSSSNSHIQASITETPNNSSTRVSSTATSSIYQKQRRPTYSSSKSNNWTPGEASDTPPLPPHATPKNVDAPVTADTPPAQTFTPSEVPPSTPQQSSPPTAKEPDSSNLPKTVPISISQPPLQPQSKTKPLPVEPASPSISLPTATVDNQPSGQVDSRPLHIRAPALPPSRKQNFIHNRDSQLYDSLPNHGSGATPTSSSLSSIPQERPVSTLSSQITGELRELNPQATGSSTSLVGQSLFQHSSLDTSQFGLNASIAEVLNASFKDGMLQNSQLIGEIALNYLPNSVMNSPLPIGINLRINNGAKFEKVILNQAFIERVAPEEFKVNPSFIDSRTLGAIKYSIKEPIAPIVIHPVWRFESHQASVVLTVKMSPSLPDEISQIVIEDLVVFVNIDGANATSALSKPQGSFSKEKKRITWRFKEPVVLTRNGEGQRLIARFITDGLAHESAKGVITKFTISETDNVALPHSGAGSGITLTCQELDENNPFGGEWLDVNTKRTLTTGNYHGLA", "notes": "Syp1, S. cerevisiae endocytic adaptor; Each copy carries one of the two tags; also called Syp1-3myeGFP; source: S. cerevisiae, chromosomally tagged at the endogenous locus, in living cells; not shown: 3myeGFP, C-terminal, kept; 3mCherry, C-terminal, kept"}, "B3": {"name": "Apl1 (natural protein, S. cerevisiae, UniProt P27351 1-700, looked up)", "chain": "MSDQKVFARYKANEIVTDLQHFGVKKFKSNITRRKNALRKIIANLVLGNYGEMSVLFSELLKFWQIEDDLEVKRICHEYIRVIGALKPQQAREALPFIMDDFKSRDEKLQIMALRTLVLVPVKELSDQAFDCIISLVNHKSPPEQVTRTAIYALLDLDEIDHERVLGLSSILHDIVKAQSSSPEVIVAALHTLYSIHEKNANMEPFRIPLELAFDMLELLPELNEWNKATVLEVLTTSVVPQHYLDTHEMIELALPYLQQVNTYVVLNSLKFIMYLLNYVDVIKETLAEKLSNSVIALLDKPPELQFLVLRNVILLLLSRESSLLRLDISYFFIEYNDPIYIKDTKLECLYLLANKETLPRILEELEQYATDIDIQMSRKSVRAIGNLAVKLDEDSVHDCVAVLLDLLEFGVDYVVQEIISVFRNILRKYPNNFKANVTELVKHTEVVQEPESKNAMIWIITQYSDVIPNYLELFRVFSSNMFSETLEVQFSILNSAIKFFIRSPTKETEELCMDLLKGCIDHENNPDLRDKTLMYWRLLSLTKTSRISNAITFESLKSVLDGELPLIEMNTKLDPTVLEELELNIGTIVSIYLKPVSHIFRLNKTKLLPQSPILNPNKDLLPVVGNSFPPTGANRDRQNSESQSSTKSRKTAMMDDYDKPAEKINQLKGKRKSSSNNPSKLSRKPSTLLRKLSMKRPFS", "notes": "Apl1, subunit of the AP2 complex, S. cerevisiae; also called Apl1-1myeGFP; Apl1-3mCherry; source: chromosomally tagged at the endogenous locus, in the cytoplasm of living S. cerevisiae cells"}},
  "key": {"[1]": {"target": "Las17 polyproline motif (Saccharomyces cerevisiae) (UniProt Q12446)", "settings": "cited from earlier work"}, "[2]": {"target": "the molecule itself", "test": "FCS molecular brightness (counts per particle per second); living yeast cells, cytoplasm; brightness of GFP-tagged particles compared with 3myeGFP and Ent2-3myeGFP (monomers) or with wild-type Ede1; average of all particles"}, "[3]": {"target": "T1, Ede1 (Ede1-3myeGFP / Ede1-3mCherry) (S. cerevisiae, UniProt P34216 1-1381)", "T1 construct": "Ede1, S. cerevisiae, homolog of mammalian Eps15; expressed from its own locus; also called wild-type Ede1; full-length Ede1; source: S. cerevisiae, chromosomally tagged at the endogenous locus, in living cells; not shown: 3myeGFP, C-terminal, kept; 3mCherry, C-terminal, kept", "T1 sequence (looked up)": "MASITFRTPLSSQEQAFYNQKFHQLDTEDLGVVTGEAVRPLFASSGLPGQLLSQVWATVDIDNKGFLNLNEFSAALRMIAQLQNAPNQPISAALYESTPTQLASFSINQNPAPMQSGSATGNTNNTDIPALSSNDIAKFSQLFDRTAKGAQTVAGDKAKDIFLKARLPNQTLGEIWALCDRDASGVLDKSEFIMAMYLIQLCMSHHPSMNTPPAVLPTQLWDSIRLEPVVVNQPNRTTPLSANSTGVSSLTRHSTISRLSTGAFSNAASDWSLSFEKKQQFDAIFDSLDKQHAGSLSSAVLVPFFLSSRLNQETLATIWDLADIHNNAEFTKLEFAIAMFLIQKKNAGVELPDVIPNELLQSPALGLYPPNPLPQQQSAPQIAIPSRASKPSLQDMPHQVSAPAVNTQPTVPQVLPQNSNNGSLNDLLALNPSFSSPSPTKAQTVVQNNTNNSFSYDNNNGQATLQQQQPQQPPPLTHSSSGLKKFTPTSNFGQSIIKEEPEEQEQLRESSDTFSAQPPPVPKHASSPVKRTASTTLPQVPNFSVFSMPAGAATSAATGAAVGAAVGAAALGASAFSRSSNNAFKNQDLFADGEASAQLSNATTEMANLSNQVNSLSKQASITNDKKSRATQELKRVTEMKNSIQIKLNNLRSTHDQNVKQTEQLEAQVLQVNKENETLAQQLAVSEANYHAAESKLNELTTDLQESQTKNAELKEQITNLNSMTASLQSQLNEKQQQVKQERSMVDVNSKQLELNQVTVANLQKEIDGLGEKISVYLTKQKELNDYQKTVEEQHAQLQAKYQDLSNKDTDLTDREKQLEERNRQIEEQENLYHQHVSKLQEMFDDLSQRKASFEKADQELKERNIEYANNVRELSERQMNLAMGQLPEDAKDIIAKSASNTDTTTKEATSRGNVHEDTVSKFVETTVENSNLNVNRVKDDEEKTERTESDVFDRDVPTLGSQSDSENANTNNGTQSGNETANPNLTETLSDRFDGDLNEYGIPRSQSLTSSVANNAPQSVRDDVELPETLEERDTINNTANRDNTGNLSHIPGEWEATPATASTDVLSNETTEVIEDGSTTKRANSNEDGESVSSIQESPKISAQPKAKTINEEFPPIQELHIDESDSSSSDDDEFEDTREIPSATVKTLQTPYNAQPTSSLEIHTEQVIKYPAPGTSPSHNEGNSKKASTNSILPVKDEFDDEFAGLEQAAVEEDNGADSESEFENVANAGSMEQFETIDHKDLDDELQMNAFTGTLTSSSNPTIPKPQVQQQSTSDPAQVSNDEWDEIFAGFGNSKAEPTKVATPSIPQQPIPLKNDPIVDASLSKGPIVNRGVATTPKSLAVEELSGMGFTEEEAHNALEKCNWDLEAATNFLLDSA", "test": "fluorescence cross-correlation spectroscopy (FCCS); living yeast cells, observation volume in the cytoplasm; one protein tagged with (3)myeGFP/eGFP and the other with 3mCherry in the same strain; apparent (effective) KD; interactions up to ~1 μM detectable", "settings": "partners not purified"}, "[4]": {"target": "T2, Apl3 (S. cerevisiae, UniProt P38065 1-1025)", "T2 construct": "Apl3, subunit of the AP2 complex, S. cerevisiae; also called Apl3-3myeGFP; Apl3-3mCherry; source: chromosomally tagged at the endogenous locus, in the cytoplasm of living S. cerevisiae cells", "T2 sequence (looked up)": "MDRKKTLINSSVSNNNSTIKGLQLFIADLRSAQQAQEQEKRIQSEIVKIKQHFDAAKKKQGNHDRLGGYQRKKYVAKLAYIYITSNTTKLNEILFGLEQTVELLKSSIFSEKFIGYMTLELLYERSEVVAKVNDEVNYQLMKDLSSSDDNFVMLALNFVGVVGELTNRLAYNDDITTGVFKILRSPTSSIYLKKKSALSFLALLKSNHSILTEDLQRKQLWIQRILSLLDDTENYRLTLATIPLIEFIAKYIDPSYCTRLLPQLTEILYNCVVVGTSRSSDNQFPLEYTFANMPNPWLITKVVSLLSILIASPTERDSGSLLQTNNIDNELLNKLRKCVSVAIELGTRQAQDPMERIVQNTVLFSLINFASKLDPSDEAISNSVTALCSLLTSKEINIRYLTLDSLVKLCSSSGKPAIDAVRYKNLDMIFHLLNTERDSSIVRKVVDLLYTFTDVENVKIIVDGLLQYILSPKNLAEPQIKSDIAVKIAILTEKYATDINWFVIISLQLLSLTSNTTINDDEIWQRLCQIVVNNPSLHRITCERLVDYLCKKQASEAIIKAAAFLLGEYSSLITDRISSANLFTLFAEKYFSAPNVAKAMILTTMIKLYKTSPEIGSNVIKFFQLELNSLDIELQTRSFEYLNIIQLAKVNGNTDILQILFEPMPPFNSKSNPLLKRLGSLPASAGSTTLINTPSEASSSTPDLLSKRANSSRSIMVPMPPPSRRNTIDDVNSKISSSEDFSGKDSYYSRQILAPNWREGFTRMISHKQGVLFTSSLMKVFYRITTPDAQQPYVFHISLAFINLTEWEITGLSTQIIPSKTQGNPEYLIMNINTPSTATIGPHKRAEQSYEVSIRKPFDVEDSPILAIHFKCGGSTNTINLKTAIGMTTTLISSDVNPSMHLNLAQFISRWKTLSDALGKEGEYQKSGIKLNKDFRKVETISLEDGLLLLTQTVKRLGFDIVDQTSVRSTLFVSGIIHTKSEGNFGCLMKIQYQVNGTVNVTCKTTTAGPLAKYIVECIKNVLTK", "test": "fluorescence cross-correlation spectroscopy (FCCS); in the cytoplasm of living yeast cells; first-named protein green (3myeGFP or 1myeGFP; eGFP for Don1), second red (3mCherry); self-interaction in diploid strains with one allele of each colour; apparent or effective KD (Kdeff) from single-cell measurements; only Kdeff values < 1000 nM are shown; values for self-interactions are upper limits", "settings": "partners not purified"}},
  "data": [
    {"molecule": "Sla1 SH3 domains (from UniProt P32790)", "values": [
      {"measurement": "Kd", "setting": "[1]", "result": 56, "unit": "nM"}
    ]},
    {"molecule": "B1", "values": [
      {"measurement": "molecular brightness per particle relative to 3myeGFP", "setting": "[2]", "result": 2, "unit": "fold"},
      {"measurement": "Kd", "setting": "[3]", "result": 590, "unit": "nM"}
    ]},
    {"molecule": "B2", "values": [
      {"measurement": "Kd", "setting": "[3]", "result": 227, "unit": "nM"}
    ]},
    {"molecule": "B3", "values": [
      {"measurement": "Kd", "setting": "[4]", "result": 37, "unit": "nM"}
    ]}
  ]
}
